Patent publication US20260274955A1 (JANUX THERAPEUTICS, published 2026)

Experiments:
[1] = target: T1, anti-CD28 Fab (SEQ ID NOs: 202, 203); assay: phage binding ELISA; biotinylated Fab on neutravidin plate;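 also: clonal phage supernatants added to Fab wells pretreated with CD28 antigen or with blocking buffer only, bound phage read out via HRP-linked anti-M13 antibody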
T1 construct: biotinylated and captured on neutravidin coated plates in the phage ELISA
T1 sequence (VH, as listed by the source, chain 1 of 2): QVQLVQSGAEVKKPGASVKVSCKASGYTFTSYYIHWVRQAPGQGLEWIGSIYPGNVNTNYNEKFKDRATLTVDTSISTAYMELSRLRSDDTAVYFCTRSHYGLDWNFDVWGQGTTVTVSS
T1 sequence (VL, as listed by the source, chain 2 of 2): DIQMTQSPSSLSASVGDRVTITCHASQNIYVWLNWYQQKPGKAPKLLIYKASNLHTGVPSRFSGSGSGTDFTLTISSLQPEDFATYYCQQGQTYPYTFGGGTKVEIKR
Method: (§1) Clonal phage were harvested as crude supernatants and screened via standard ELISAs. […] Prior to the addition of clonal phage, wells were incubated with blocking buffer and CD28 antigen or blocking buffer alone. Without washing or aspirating, clonal phage supernatants were then added to the wells and incubated for a short time. Wells were then washed followed by detection of bound phage using a horse radish conjugated anti-M13 antibody.

[2] = target: T2, anti-CD28 Fab (SEQ ID NOs: 202, 203); assay: phage ELISA on captured Fab;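 also: ELISA with clonal phage supernatants added to wells preincubated with CD28 antigen or with blocking buffer only, bound phage detected by HRP-conjugated anti-M13 antibody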
T2 construct: biotinylated and captured on neutravidin coated plates in the phage ELISA
T2 sequence (VH, as listed by the source, chain 1 of 2): as the sequence (VH, as listed by the source, chain 1 of 2) above
T2 sequence (VL, as listed by the source, chain 2 of 2): as the sequence (VL, as listed by the source, chain 2 of 2) above
Method: as §1

[3] = target: T3, Anti-CD28 Fab (SEQ ID NOs: 202, 203); assay: phage ELISA, Fab on plate;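 also: crude clonal phage supernatants added to wells pretreated with blocking buffer with or without CD28 antigen, then bound phage read out via HRP-linked anti-M13 antibody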
T3 construct: biotinylated and captured on neutravidin coated plates in the phage ELISA
T3 sequence (VH, as listed by the source, chain 1 of 2): as the sequence (VH, as listed by the source, chain 1 of 2) above
T3 sequence (VL, as listed by the source, chain 2 of 2): as the sequence (VL, as listed by the source, chain 2 of 2) above

Binder | Anti-CD28 Fab (SEQ ID NOs: 202, 203) signal [1] | Anti-CD28 Fab (SEQ ID NOs: 202, 203) signal [2] | other results
YCEGHLAVYMQKCL [Phage-301] | 1.91 |  | 
YCEGHSSEYMEKCL [Phage-302] | 1.91 |  | 
YCDGHRLEYLEKCL (on phage, pIII fusion) [Phage-516] |  | 1.6 | 
YCDGHSWEYMEKCL [Phage-441] | 1.7 |  | 
YCEGHSVQYMQKCL [Phage-429] | 1.71 |  | 
YCDGHAQEFIWKCL (on phage, pIII fusion) [Phage-518] |  | 1.6 | 
YCDGHVVEYMSKCL [Phage-729] |  |  | Anti-CD28 Fab (SEQ ID NOs: 202, 203) signal [3]: 1.12
YCDGHAAEFMMKCL [Phage-423] | 1.72 |  | 
YCVGHSEQYMAKCL [Phage-726] |  |  | Anti-CD28 Fab (SEQ ID NOs: 202, 203) signal [3]: 1.13
YCDGHLDIYLAKCL [Phage-303] | 1.91 |  | 
YCQGHLPVYMEKCL [Phage-427] | 1.72 |  | 
YCEGHSSLYLEKCL [Phage-732] |  |  | Anti-CD28 Fab (SEQ ID NOs: 202, 203) signal [3]: 1.11
YCDGHAAEYMDKCL [Phage-428] | 1.72 |  | 
YCEGHMPEYLQKCL (on phage, pIII fusion) [Phage-514] |  | 1.6 | 
YCAGHTQEYMYKCL [Phage-438] | 1.7 |  | 
YCAGHLPQYMHKCL [Phage-730] |  |  | Anti-CD28 Fab (SEQ ID NOs: 202, 203) signal [3]: 1.11
YCDGHLVEYRGKCL [Phage-432] | 1.71 |  | 
YCDGHEAEYMWKCL [Phage-727] |  |  | Anti-CD28 Fab (SEQ ID NOs: 202, 203) signal [3]: 1.13
YCDGHLQMYMMKCL [Phage-724] |  |  | Anti-CD28 Fab (SEQ ID NOs: 202, 203) signal [3]: 1.14
YCDGHLQIYMHKCL [Phage-434] | 1.71 |  | 
YCEGHLPQYFMKCL [Phage-440] | 1.7 |  | 
YCAGHSPEYMQKCL (on phage, pIII fusion) [Phage-511] |  | 1.6 | 
YCEGHAEQYMKKCL [Phage-728] |  |  | Anti-CD28 Fab (SEQ ID NOs: 202, 203) signal [3]: 1.12
YCDGHELQYMAKCL (on phage, pIII fusion) [Phage-515] |  | 1.6 | 

Binder | Anti-CD28 Fab (SEQ ID NOs: 202, 203) signal [1] | Anti-CD28 Fab (SEQ ID NOs: 202, 203) signal [2] | other results
YCEGHAAAYMGKCL [Phage-722] |  |  | Anti-CD28 Fab (SEQ ID NOs: 202, 203) signal [3]: 1.14
YCDGHLQIYLWKCL [Phage-426] | 1.72 |  | 
YCDGHSLAYIAKCL [Phage-437] | 1.7 |  | 
YCEGHSEMYMKKCL [Phage-425] | 1.72 |  | 
YCDGHSVKYMAKCL (on phage, pIII fusion) [Phage-507] |  | 1.61 | 
YCDGHTQAYIQKCL [Phage-421] | 1.73 |  | 
YCDGHSEVYMSKCL (on phage, pIII fusion) [Phage-540] |  | 1.55 | 
YCDGHEQQYMEKCL [Phage-723] |  |  | Anti-CD28 Fab (SEQ ID NOs: 202, 203) signal [3]: 1.14
YCDGHSREYMVKCL [Phage-431] | 1.71 |  | 
YCDGHIWPWIEKCL [Phage-731] |  |  | Anti-CD28 Fab (SEQ ID NOs: 202, 203) signal [3]: 1.11
YCAGHLDQYIEKCL (on phage, pIII fusion) [Phage-517] |  | 1.6 | 
YCDGHAQEYMVKCL (on phage, pIII fusion) [Phage-510] |  | 1.61 | 
YCDGHSVEYKLKCM (on phage, pIII fusion) [Phage-509] |  | 1.61 | 
YCDGHLPEYFLKCL [Phage-436] | 1.71 |  | 
YCEGHSEEYMSKCL [Phage-304] | 1.91 |  | 
YCEGHLYEYMWKCL [Phage-725] |  |  | Anti-CD28 Fab (SEQ ID NOs: 202, 203) signal [3]: 1.13
YCEGHVAEYRAKCL [Phage-720] |  |  | Anti-CD28 Fab (SEQ ID NOs: 202, 203) signal [3]: 1.15
YCEGHLPLYMDKCL (on phage, pIII fusion) [Phage-512] |  | 1.6 | 
YCEGHSAAYMQKCL (on phage, pIII fusion) [Phage-513] |  | 1.6 | 
YCDGHAIQYIGKCL [Phage-422] | 1.72 |  | 
YCDGHSEAYMWKCL (on phage, pIII fusion) [Phage-519] |  | 1.59 | 
YCSGHLPEYMWKCL (on phage, pIII fusion) [Phage-508] |  | 1.61 | 
YCDGHLLEYMSKCL (on phage, pIII fusion) [Phage-582] |  | 1.46 | 
YCQGHLPQYIEKCL [Phage-721] |  |  | Anti-CD28 Fab (SEQ ID NOs: 202, 203) signal [3]: 1.14
